Test results taken from PMC3592474.

Columns and labels:
Settings in all cases: 100 mM Na+, pH 7.5, 21 C; slow pulling (100 nm/s) for equilibrium measurements
[1] = tested on: HMGB2 (box A), +/- His tag average (human); experiment: optical tweezers, persistence/contour length, Hill fit
[2] = tested on: Nhp6Ap (Saccharomyces cerevisiae); experiment: as above
[3] = tested on: HMGB2 (box A), +/- His tag average (human); experiment: optical tweezers, overstretching force, Hill fit
[4] = tested on: Nhp6Ap (Saccharomyces cerevisiae); experiment: optical tweezers, overstretching force, Hill fit
[5] = tested on: HMGB2 (box A) -his (human); experiment: optical tweezers, persistence/contour length vs concentration
[6] = tested on: HMGB2 (box A), +/- His tag average (human); experiment: as above
[7] = tested on: Nhp6Ap (Saccharomyces cerevisiae); experiment: as above
[8] = tested on: HMGB2 (box A) +his (human); experiment: as above
[9] = tested on: HMGB2 (box A), +/- His tag average (human); experiment: optical tweezers, WLC/FJC linear combination fit
[10] = tested on: Nhp6Ap (Saccharomyces cerevisiae); experiment: optical tweezers, WLC/FJC linear combination fit
[11] = tested on: HMGB2 (box A) -his (human); experiment: optical tweezers, overstretching force vs concentration
[12] = tested on: HMGB2 (box A), +/- His tag average (human); experiment: as above
[13] = tested on: Nhp6Ap (Saccharomyces cerevisiae); experiment: as above
[14] = tested on: HMGB2 (box A) +his (human); experiment: as above

phage lambda DNA
Kd [1]: 170 nM | Kd [2]: 66 nM | Kd [3]: 850 nM | Kd [4]: 150 nM | Kd [5]: 130 nM | Kd [6]: 180 nM | Kd [7]: 71 nM | Kd [8]: 230 nM | Kd [9]: 460 nM | Kd [10]: 63 nM | Kd [11]: 830 nM | Kd [12]: 880 nM | Kd [13]: 160 nM | Kd [14]: 930 nM
